Columns and labels:
[1] = molecular target: HLA-DQ2.5/33mer gliadin peptide on IHW9088 cells (human); assay: cell-based or functional assay
[2] = molecular target: T1, HLA-DQ2.5 on HLA-DQ2.5-positive PBMC B cells (human, UniProt P01909 24-254; P01920 33-261); assay: FACS, PBMC B cells; IC17=0%, DQN0139bb//IC17=100%
T1 construct: whole, on cells; also called HLA-DQ2.5+ PBMC B cell
T1 MHC II alpha: not shown
T1 MHC II beta: not shown

[3] = molecular target: T2, HLA-DQ2.5/hordein 2 peptide complex on Ba/F3 cells (human); assay: FACS, Ba/F3 cells; IC17=0%, DQN0139bb//IC17=100%;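 note: flow cytometry binding of anti-HLA-DQ antibodies at 5 µg/mL, incubated 30 min at room temperature with Ba/F3 lines presenting HLA-DQ/peptide complexes; antibody tested at 5 microgram/mL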
T2 construct: whole, on cells; also called Ba/F3-HLA-DQ2.5/hordein 2
Excerpt: (§1) The binding of anti-HLA-DQ antibodies to Ba/F3-HLA-DQ2.5, Ba/F3-HLA-DQ2.2, Ba/F3-HLA-DQ7.5, Ba/F3-HLA-DQ8, Ba/F3-HLA-DQ5.1, Ba/F3-HLA-DQ6.3, Ba/F3-HLA-DQ7.3, Ba/F3-HLA-DR, Ba/F3-HLA-DP, Ba/F3-HLA-DQ2.5/CLIP, Ba/F3-HLA-DQ2.5/HBV, Ba/F3-HLA-DQ2.5/Salmonella, Ba/F3-HLA-DQ2.5/TPO, Ba/F3-HLA-DQ2.5/M. bovis, Ba/F3-HLA-DQ2.5/alpha 1 gliadin, Ba/F3-HLA-DQ2.5/alpha 2 gliadin, Ba/F3-HLA-DQ2.5/gamma 1 gliadin, Ba/F3-HLA-DQ2.5/gamma 2 gliadin, Ba/F3-HLA-DQ2.5/omega 1 gliadin, Ba/F3-HLA-DQ2.5/omega 2 gliadin, Ba/F3-HLA-DQ2.5/BC hordein, Ba/F3-HLA-DQ2.5/alpha 3 gliadin, Ba/F3-HLA-DQ2.5/alpha 1b gliadin, Ba/F3-HLA-DQ2.5/gamma 4b gliadin, Ba/F3-HLA-DQ2.5/avenin 1, Ba/F3-HLA-DQ2.5/avenin 2, Ba/F3-HLA-DQ2.5/avenin 3, Ba/F3-HLA-DQ2.5/hordein 1, Ba/F3-HLA-DQ2.5/hordein 2, Ba/F3-HLA-DQ2.5/secalin 1, Ba/F3-HLA-DQ2.5/secalin 2, Ba/F3-HLA-DQ2.5/14mer 1, Ba/F3-HLA-DQ2.5/33mer gliadin, Ba/F3-HLA-DQ2.5/26mer gliadin, was tested. 5 microgram/mL of each of the anti-HLA-DQ antibodies was incubated with each cell line for 30 minutes at room temperature and washed with FACS buffer (2% FBS, 2 mM EDTA in PBS).

[4] = molecular target: T3, HLA-DQ2.5/alpha 1 gliadin peptide complex on Ba/F3 cells (human); assay: FACS, Ba/F3 cells; IC17=0%, DQN0139bb//IC17=100%;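 note: flow cytometry binding of anti-HLA-DQ antibodies at 5 µg/mL, incubated 30 min at room temperature with Ba/F3 lines presenting HLA-DQ/peptide complexes; antibody tested at 5 microgram/mL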
T3 construct: whole, on cells; also called Ba/F3-HLA-DQ2.5/alpha 1 gliadin; HLA-DQ2.5/a1 gliadin
Excerpt: as §1

HLA-DQ8 on Ba/F3 cells = molecular target: T4, HLA-DQ8 on Ba/F3 cells (human, UniProt P01909 24-216; P01920 33-230, limits assumed); assay: FACS, Ba/F3 cells; IC17=0%, DQN0139bb//IC17=100%;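 note: flow cytometry binding of anti-HLA-DQ antibodies at 5 µg/mL, incubated 30 min at room temperature with Ba/F3 lines presenting HLA-DQ/peptide complexes; antibody tested at 5 microgram/mL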
T4 construct: whole, on cells; also called Ba/F3-HLA-DQ8
Excerpt: as §1
T4 MHC II alpha: not shown
T4 MHC II beta: not shown

[5] = molecular target: T5, HLA-DQ2.5/14mer 1 peptide complex on Ba/F3 cells (human); assay: FACS, Ba/F3 cells; IC17=0%, DQN0139bb//IC17=100%;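 note: flow cytometry binding of anti-HLA-DQ antibodies at 5 µg/mL, incubated 30 min at room temperature with Ba/F3 lines presenting HLA-DQ/peptide complexes; antibody tested at 5 microgram/mL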
T5 construct: whole, on cells; also called Ba/F3-HLA-DQ2.5/14mer 1
Excerpt: as §1

[6] = molecular target: T6, HLA-DQ2.5/26mer gliadin peptide complex on Ba/F3 cells (human); assay: FACS, Ba/F3 cells; IC17=0%, DQN0139bb//IC17=100%
T6 construct: whole, on cells; also called Ba/F3-HLA-DQ2.5/26mer gliadin
Excerpt: as §1

[7] = molecular target: T7, HLA-DQ2.5/Thyroperoxidase peptide complex on Ba/F3 cells (human); assay: FACS, Ba/F3 cells; IC17=0%, DQN0139bb//IC17=100%
T7 construct: whole, on cells; also called Ba/F3-HLA-DQ2.5/TPO; HLA-DQ2.5/TPO
Excerpt: as §1

[8] = molecular target: T8, HLA-DQ2.5/omega 1 gliadin peptide complex on Ba/F3 cells (human); assay: FACS, Ba/F3 cells; IC17=0%, DQN0139bb//IC17=100%
T8 construct: whole, on cells; also called Ba/F3-HLA-DQ2.5/omega 1 gliadin; HLA-DQ2.5/w1 gliadin
Excerpt: as §1

[9] = molecular target: T9, HLA-DQ2.5/hordein 1 peptide complex on Ba/F3 cells (human); assay: FACS, Ba/F3 cells; IC17=0%, DQN0139bb//IC17=100%
T9 construct: whole, on cells; also called Ba/F3-HLA-DQ2.5/hordein 1
Excerpt: as §1

[10] = molecular target: T10, HLA-DQ2.5/gamma 1 gliadin peptide complex on Ba/F3 cells (human); assay: FACS, Ba/F3 cells; IC17=0%, DQN0139bb//IC17=100%
T10 construct: whole, on cells; also called Ba/F3-HLA-DQ2.5/gamma 1 gliadin; HLA-DQ2.5/g1 gliadin
Excerpt: as §1

[11] = molecular target: T11, HLA-DQ2.5/alpha 3 gliadin peptide complex on Ba/F3 cells (human); assay: FACS, Ba/F3 cells; IC17=0%, DQN0139bb//IC17=100%
T11 construct: whole, on cells; also called Ba/F3-HLA-DQ2.5/alpha 3 gliadin; HLA-DQ2.5/a3 gliadin
Excerpt: as §1

[12] = molecular target: T12, HLA-DQ2.5/CLIP peptide complex on Ba/F3 cells (human); assay: FACS, Ba/F3 cells; IC17=0%, DQN0139bb//IC17=100%
T12 construct: whole, on cells; also called Ba/F3-HLA-DQ2.5/CLIP
Excerpt: as §1

[13] = molecular target: T13, HLA-DQ2.5/secalin 1 peptide complex on Ba/F3 cells (human); assay: FACS, Ba/F3 cells; IC17=0%, DQN0139bb//IC17=100%
T13 construct: whole, on cells; also called Ba/F3-HLA-DQ2.5/secalin 1
Excerpt: as §1

[14] = molecular target: T14, HLA-DQ2.5/alpha 2 gliadin peptide complex on Ba/F3 cells (human); assay: FACS, Ba/F3 cells; IC17=0%, DQN0139bb//IC17=100%
T14 construct: whole, on cells; also called Ba/F3-HLA-DQ2.5/alpha 2 gliadin; HLA-DQ2.5/a2 gliadin
Excerpt: as §1

[15] = molecular target: T15, HLA-DQ2.5/secalin 2 peptide complex on Ba/F3 cells (human); assay: FACS, Ba/F3 cells; IC17=0%, DQN0139bb//IC17=100%
T15 construct: whole, on cells; also called Ba/F3-HLA-DQ2.5/secalin 2
Excerpt: as §1

[16] = molecular target: T16, HLA-DQ2.5/omega 2 gliadin peptide complex on Ba/F3 cells (human); assay: FACS, Ba/F3 cells; IC17=0%, DQN0139bb//IC17=100%
T16 construct: whole, on cells; also called Ba/F3-HLA-DQ2.5/omega 2 gliadin; HLA-DQ2.5/w2 gliadin
Excerpt: as §1

[17] = molecular target: T17, HLA-DQ2.5/alpha 1b gliadin peptide complex on Ba/F3 cells (human); assay: FACS, Ba/F3 cells; IC17=0%, DQN0139bb//IC17=100%
T17 construct: whole, on cells; also called Ba/F3-HLA-DQ2.5/alpha 1b gliadin; HLA-DQ2.5/a1b gliadin
Excerpt: as §1

[18] = molecular target: T18, HLA-DQ2.5/gamma 2 gliadin peptide complex on Ba/F3 cells (human); assay: FACS, Ba/F3 cells; IC17=0%, DQN0139bb//IC17=100%
T18 construct: whole, on cells; also called Ba/F3-HLA-DQ2.5/gamma 2 gliadin; HLA-DQ2.5/g2 gliadin
Excerpt: as §1

[19] = molecular target: T19, HLA-DQ2.5/BC hordein peptide complex on Ba/F3 cells (human); assay: FACS, Ba/F3 cells; IC17=0%, DQN0139bb//IC17=100%
T19 construct: whole, on cells; also called Ba/F3-HLA-DQ2.5/BC hordein
Excerpt: as §1

[20] = molecular target: T20, HLA-DQ2.5/33mer gliadin peptide complex on Ba/F3 cells (human); assay: FACS, Ba/F3 cells; IC17=0%, DQN0139bb//IC17=100%
T20 construct: whole, on cells; also called Ba/F3-HLA-DQ2.5/33mer gliadin
Excerpt: as §1

[21] = molecular target: T21, HLA-DQ2.5/avenin 1 peptide complex on Ba/F3 cells (human); assay: FACS, Ba/F3 cells; IC17=0%, DQN0139bb//IC17=100%
T21 construct: whole, on cells; also called Ba/F3-HLA-DQ2.5/avenin 1
Excerpt: as §1

[22] = molecular target: T22, HLA-DQ2.5/avenin 2 peptide complex on Ba/F3 cells (human); assay: FACS, Ba/F3 cells; IC17=0%, DQN0139bb//IC17=100%
T22 construct: whole, on cells; also called Ba/F3-HLA-DQ2.5/avenin 2
Excerpt: as §1

HLA-DQ7.5 on Ba/F3 cells = molecular target: T23, HLA-DQ7.5 on Ba/F3 cells (human, UniProt P01909 24-216; P01920 33-230, limits assumed); assay: FACS, Ba/F3 cells; IC17=0%, DQN0139bb//IC17=100%
T23 construct: whole, on cells; also called Ba/F3-HLA-DQ7.5
Excerpt: as §1

[23] = molecular target: T24, HLA-DQ2.5/avenin 3 peptide complex on Ba/F3 cells (human); assay: FACS, Ba/F3 cells; IC17=0%, DQN0139bb//IC17=100%
T24 construct: whole, on cells; also called Ba/F3-HLA-DQ2.5/avenin 3
Excerpt: as §1

T12 sequence (P04233 96-124, chain 2 of 2, other chains not shown): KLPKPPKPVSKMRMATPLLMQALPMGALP
T23 sequence (P01920 33-230 limits assumed, chain 2 of 4, other chains not shown): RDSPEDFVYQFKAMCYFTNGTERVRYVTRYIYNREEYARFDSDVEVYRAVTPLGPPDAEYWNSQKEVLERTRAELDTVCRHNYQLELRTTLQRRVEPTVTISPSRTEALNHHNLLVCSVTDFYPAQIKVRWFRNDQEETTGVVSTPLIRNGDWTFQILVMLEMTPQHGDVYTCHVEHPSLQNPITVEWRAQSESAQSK

B1: DQN0344xx//IC17 (bispecific antibody, human IgG1, kappa)
heavy 1: QSLEESGGGLVKPGGTLTLTCTASGFSFSSSYWMCWVRQAPGKGLEWVACVYGGSDTTYYASWTKGRFTISKGSSTTVALQVTSLTAADTATYFCARDPLNYYYYGELNLWGPGTLVTVSSASTKGPSVFPLAPSSKSTSGGTAALGCLVKDYFPEPVTVSWNSGALTSGVHTFPAVLQSSGLYSLSSVVTVPSSSLGTQTYICNVNHKPSNTKVDKRVEPKSCDKTHTCPPCPAPELRRGPSVFLFPPKPKDTLMISRTPEVTCVVVDVSHEDPEVKFNWYVDGVEVHNAKTKPREEQYNSTYRVVSVLTVLHQDWLNGKEYKCKVSNKALPAPIEKTISKAKGQPREPQVYTLPPSREEMTKNQVSLTCLVKGFYPSDIAVEWESNGQPENNYKTTPPYLDSDGSFFLYSKLTVDKSRWQQGNVFSCSVMHEALHNHYTQESLSLSP
light 1: AVVLTQTASPVSAAVGGTVTIRCQATENIYSGLAWYQQKPGQPPKVLIYYVSTLASGVPSRFKGSGSGTEYTLTISGVQCDDAATYYCQTYHDISNVTFGGGTKVEIKRTVAAPSVFIFPPSDEQLKSGTASVVCLLNNFYPREAKVQWKVDNALQSGNSQESVTEQDSKDCTYSLSSTLTLSKADYEKHKVYACEVTHQGLSSPVTKSFNRGEC
heavy 2: QVQLQQSGPQLVRPGASVKISCKASGYSFTSYWMHWVNQRPGQGLEWIGMIDPSYSETRLNQKFKDKATLTVDKSSSTAYMQLSSPTSEDSAVYYCALYGNYFDYWGQGTTLTVSSASTKGPSVFPLAPSSKSTSGGTAALGCLVKDYFPEPVTVSWNSGALTSGVHTFPAVLQSSGLYSLSSVVTVPSSSLGTQTYICNVNHKPSNTKVDKRVEPKSCDKTHTCPPCPAPELRRGPSVFLFPPKPKDTLMISRTPEVTCVVVDVSHEDPEVKFNWYVDGVEVHNAKTKPREEQYNSTYRVVSVLTVLHQDWLNGKEYKCKVSNKALPAPIEKTISKAKGQPREPQVYTLPPSRKEMTKNQVSLTCLVKGFYPSDIAVEWESNGQPENNYKTTPPYLDSDGSFFLYSKLTVDKSRWQQGNVFSCSVMHEALHNHYTQKSLSLSP
light 2: DIQMTQSSSSFSVSLGDRVTITCKASEDIYNRLAWYQQKPGNAPRLLISGATSLETGVPSRFSGSGSGKDYTLSITSLQTEDVATYYCQQYWSTPYTFGGGTKLEVKRTVAAPSVFIFPPSDEQLKSGTASVVCLLNNFYPREAKVQWKVDNALQSGNSQESVTEQDSKDSTYSLSSTLTLSKADYEKHKVYACEVTHQGLSSPVTKSFNRGEC
IC50 (read off the curve) [1]: ~0.2 microgram/mL
% MFI [2]: 0%
% MFI [3]: 0%
% MFI [4]: 60.1%
% MFI (HLA-DQ8 on Ba/F3 cells): 0%
% MFI [5]: 0%
% MFI [6]: 0.2%
% MFI [7]: 0%
% MFI [8]: 37.5%
% MFI [9]: 11.9%
% MFI [10]: 0.2%
% MFI [11]: 14.6%
% MFI [12]: 0%
% MFI [13]: 31.6%
% MFI [14]: 90.4%
% MFI [15]: 26.5%
% MFI [16]: 0.2%
% MFI [17]: 72.2%
% MFI [18]: 0.2%
% MFI [19]: 0%
% MFI [20]: 99.1%
% MFI [21]: 20.7%
% MFI [22]: 16.8%
% MFI (HLA-DQ7.5 on Ba/F3 cells): 0%
% MFI [23]: 17.8%

Reference: patent publication US20220153847A1 (Chugai, published 2022)
